T1: Kapβ2 (UniProt Q92973-2 1-890)
T1 sequence: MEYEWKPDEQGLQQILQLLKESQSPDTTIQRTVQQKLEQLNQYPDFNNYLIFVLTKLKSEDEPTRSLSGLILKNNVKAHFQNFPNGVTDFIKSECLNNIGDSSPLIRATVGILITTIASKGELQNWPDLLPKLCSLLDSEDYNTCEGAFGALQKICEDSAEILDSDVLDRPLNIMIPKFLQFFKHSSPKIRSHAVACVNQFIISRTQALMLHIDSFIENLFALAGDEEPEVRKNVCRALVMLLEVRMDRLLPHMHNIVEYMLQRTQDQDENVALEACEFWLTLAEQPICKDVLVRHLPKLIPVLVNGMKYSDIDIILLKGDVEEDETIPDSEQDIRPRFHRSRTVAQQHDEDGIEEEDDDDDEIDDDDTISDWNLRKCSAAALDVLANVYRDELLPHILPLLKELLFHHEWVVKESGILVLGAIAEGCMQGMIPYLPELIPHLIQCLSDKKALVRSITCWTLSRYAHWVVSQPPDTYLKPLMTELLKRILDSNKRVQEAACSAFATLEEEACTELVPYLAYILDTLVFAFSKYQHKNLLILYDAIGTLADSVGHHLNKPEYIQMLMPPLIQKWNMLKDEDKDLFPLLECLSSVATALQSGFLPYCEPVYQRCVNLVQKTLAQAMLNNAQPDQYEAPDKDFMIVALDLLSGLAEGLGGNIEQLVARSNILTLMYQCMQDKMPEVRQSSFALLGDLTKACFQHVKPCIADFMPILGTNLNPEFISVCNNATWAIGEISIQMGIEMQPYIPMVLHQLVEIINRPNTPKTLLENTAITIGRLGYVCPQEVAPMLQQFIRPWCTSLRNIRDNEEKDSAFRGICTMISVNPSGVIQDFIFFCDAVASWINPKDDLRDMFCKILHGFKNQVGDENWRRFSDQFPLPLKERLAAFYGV

T2: FUS-LC fused to mCherry (UniProt P35637 2-214)
T2 sequence: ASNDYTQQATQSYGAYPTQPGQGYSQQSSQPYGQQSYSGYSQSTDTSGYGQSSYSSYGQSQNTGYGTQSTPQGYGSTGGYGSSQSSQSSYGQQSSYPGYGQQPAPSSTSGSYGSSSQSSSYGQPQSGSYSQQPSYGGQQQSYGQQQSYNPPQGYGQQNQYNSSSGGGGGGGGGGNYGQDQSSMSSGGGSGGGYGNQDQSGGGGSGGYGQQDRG

T3: GST-Kapβ2 (UniProt Q92973-2 1-890)
T3 sequence: T1 sequence

T4: MBP-FUS (UniProt P35637 1-526)
T4 sequence: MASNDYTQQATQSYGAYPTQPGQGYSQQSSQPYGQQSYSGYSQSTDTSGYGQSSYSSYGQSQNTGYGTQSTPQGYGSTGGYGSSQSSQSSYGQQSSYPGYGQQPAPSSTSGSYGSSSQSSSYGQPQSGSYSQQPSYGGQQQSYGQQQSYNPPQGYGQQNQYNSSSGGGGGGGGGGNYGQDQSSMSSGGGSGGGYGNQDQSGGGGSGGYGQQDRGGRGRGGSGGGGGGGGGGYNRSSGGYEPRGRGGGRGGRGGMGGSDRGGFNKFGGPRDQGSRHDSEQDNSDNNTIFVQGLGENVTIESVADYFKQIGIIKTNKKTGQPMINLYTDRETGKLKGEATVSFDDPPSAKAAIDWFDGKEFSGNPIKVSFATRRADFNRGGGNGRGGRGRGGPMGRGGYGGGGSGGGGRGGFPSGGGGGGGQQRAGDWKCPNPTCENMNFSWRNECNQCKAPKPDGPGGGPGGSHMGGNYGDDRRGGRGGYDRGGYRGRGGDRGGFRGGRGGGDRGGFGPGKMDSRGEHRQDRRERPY

B1: FUS(1-500) (domain or fragment)
chain: MASNDYTQQATQSYGAYPTQPGQGYSQQSSQPYGQQSYSGYSQSTDTSGYGQSSYSSYGQSQNTGYGTQSTPQGYGSTGGYGSSQSSQSSYGQQSSYPGYGQQPAPSSTSGSYGSSSQSSSYGQPQSGSYSQQPSYGGQQQSYGQQQSYNPPQGYGQQNQYNSSSGGGGGGGGGGNYGQDQSSMSSGGGSGGGYGNQDQSGGGGSGGYGQQDRGGRGRGGSGGGGGGGGGGYNRSSGGYEPRGRGGGRGGRGGMGGSDRGGFNKFGGPRDQGSRHDSEQDNSDNNTIFVQGLGENVTIESVADYFKQIGIIKTNKKTGQPMINLYTDRETGKLKGEATVSFDDPPSAKAAIDWFDGKEFSGNPIKVSFATRRADFNRGGGNGRGGRGRGGPMGRGGYGGGGSGGGGRGGFPSGGGGGGGQQRAGDWKCPNPTCENMNFSWRNECNQCKAPKPDGPGGGPGGSHMGGNYGDDRRGGRGGYDRGGYRGRGGDRGGFRGGRGG
B2: GFP:hnRNPA2-LC (domain or fragment)
chain: MQEVQSSRSGRGGNFGFGDSRGGGGNFGPGPGSNFRGGSDGYGSGRGFGDGYNGYGGGPGGGNFGGSPGYGGGRGGYGGGGPGYGNQGGGYGGGYDNYGGGNYGSGNYNDFGNYNQQPSNYGPMKSGNFGGSRNMGGPYGGGNYGPGGSGGSGGYGGRSRY
B3: GFP:FUS-LC (domain or fragment)
chain: T2 sequence
B4: Kapβ2(ΔLoop) (natural protein)
chain: MEYEWKPDEQGLQQILQLLKESQSPDTTIQRTVQQKLEQLNQYPDFNNYLIFVLTKLKSEDEPTRSLSGLILKNNVKAHFQNFPNGVTDFIKSECLNNIGDSSPLIRATVGILITTIASKGELQNWPDLLPKLCSLLDSEDYNTCEGAFGALQKICEDSAEILDSDVLDRPLNIMIPKFLQFFKHSSPKIRSHAVACVNQFIISRTQALMLHIDSFIENLFALAGDEEPEVRKNVCRALVMLLEVRMDRLLPHMHNIVEYMLQRTQDQDENVALEACEFWLTLAEQPICKDVLVRHLPKLIPVLVNGMKYSDIDIILLKGGGSGGSGSDWNLRKCSAAALDVLANVYRDELLPHILPLLKELLFHHEWVVKESGILVLGAIAEGCMQGMIPYLPELIPHLIQCLSDKKALVRSITCWTLSRYAHWVVSQPPDTYLKPLMTELLKRILDSNKRVQEAACSAFATLEEEACTELVPYLAYILDTLVFAFSKYQHKNLLILYDAIGTLADSVGHHLNKPEYIQMLMPPLIQKWNMLKDEDKDLFPLLECLSSVATALQSGFLPYCEPVYQRCVNLVQKTLAQAMLNNAQPDQYEAPDKDFMIVALDLLSGLAEGLGGNIEQLVARSNILTLMYQCMQDKMPEVRQSSFALLGDLTKACFQHVKPCIADFMPILGTNLNPEFISVCNNATWAIGEISIQMGIEMQPYIPMVLHQLVEIINRPNTPKTLLENTAITIGRLGYVCPQEVAPMLQQFIRPWCTSLRNIRDNEEKDSAFRGICTMISVNPSGVIQDFIFFCDAVASWINPKDDLRDMFCKILHGFKNQVGDENWRRFSDQFPLPLKERLAAFYGV

Assays:
[1] = biological target: T1, Kapβ2; assay: pull-down
[2] = biological target: T1, Kapβ2; assay: NMR titration
[3] = biological target: T1, Kapβ2; assay: hydrogel binding assay
[4] = biological target: T2, FUS-LC fused to mCherry; assay: hydrogel binding assay
[5] = biological target: B4; assay: ITC
[6] = biological target: T3, GST-Kapβ2; assay: pull-down
[7] = biological target: T4, MBP-FUS; assay: ITC

PRPRPRPRPRPRPRPRPRPRPRPRPRPRPRPRPRPR [GST-PR18]
binding result [1]: binds

B1
binding result [2]: binds

B2
binding result [3]: binds

B3
binding result [4]: binds

PRPRPRPRPRPRPRPRPRPRPRPRPRPRPRPRPRPR [MBP-PR18]
Kd [5]: 81.3 nM | stoichiometry N [5]: 1 | binding result [6]: binds

B4
binding result [7]: binds

PRPRPRPRPRPRPRPRPRPRPRPRPRPRPRPRPRPRPRPR [(Pro-Arg)20-HA]
binding result [2]: binds

Source: publication doi:10.1101/812099 (bioRxiv, 2019)
